Where two headings read alike, the source gives them in different places. Non-standard residues stand in square brackets, D forms with d.
Legend:
[1] = target: L-NLS-NUPR1L NLS (Homo sapiens) (UniProt A6NF83); test: fluorescence; details: cited from earlier work
[2] = target: L-NLS-PADI NLS (Homo sapiens) (UniProt Q9UM07); test: fluorescence; details: cited from earlier work
[3] = target: L-NLS-NUPR1phospho NLS (Homo sapiens) (UniProt O60356); details: cited from earlier work
[4] = target: L-NLS-PADI NLS (Homo sapiens) (UniProt Q9UM07); test: ITC; details: cited from earlier work
[5] = target: L-NLS-NUPR1 NLS (Homo sapiens) (UniProt O60356); details: cited from earlier work
[6] = target: L-NLS-PADI (NLS2-PADI4) (Homo sapiens) (UniProt Q9UM07); test: fluorescence; details: cited from earlier work
[7] = target: L-NLS-NUPR1L (Homo sapiens) (UniProt A6NF83); test: fluorescence; details: cited from earlier work
[8] = target: L-NLS-NUPR1 (Homo sapiens) (UniProt O60356); test: ITC; details: cited from earlier work
[9] = target: L-NLS-NUPR1phospho (Homo sapiens) (UniProt O60356); test: ITC; details: cited from earlier work
[10] = target: L-NLS-PADI (NLS2-PADI4) (Homo sapiens) (UniProt Q9UM07); test: ITC; details: cited from earlier work
[11] = target: L-NLS-NUPR1L NLS (Homo sapiens) (UniProt A6NF83); test: ITC; details: cited from earlier work
[12] = target: L-NLS-NUPR1phospho NLS (Homo sapiens) (UniProt O60356); details: cited from earlier work; remark: listed apart in the source
[13] = target: L-NLS-NUPR1 NLS (Homo sapiens) (UniProt O60356); details: cited from earlier work; remark: listed apart in the source
[14] = target: L-NLS-NUPR1L (Homo sapiens) (UniProt A6NF83); test: ITC; details: cited from earlier work
[15] = target: T1, Human importin α3 isoform (residues 1–521) (human, UniProt O00629 1-521); test: BLI; His-tagged Impα3 or ∆Impα3 immobilised on His-tag biosensors at 0.25 μM; peptides 1 to 10 μM; BLItz system, manufacturer's 10x kinetics buffer; 25 °C; kon and koff from pseudo-first-order plots; apparent Kd = koff/kon, two-state process assumed; details: both partners purified
T1 construct: human importin α3 (Impα3, KPNA4), residues 1-521, intact protein with the N-terminal IBB domain; The materials list Ni2+-resin, ampicillin and IPTG, so expression in E. coli is surmised; also called Impα3; KPNA4
T1 sequence (looked up): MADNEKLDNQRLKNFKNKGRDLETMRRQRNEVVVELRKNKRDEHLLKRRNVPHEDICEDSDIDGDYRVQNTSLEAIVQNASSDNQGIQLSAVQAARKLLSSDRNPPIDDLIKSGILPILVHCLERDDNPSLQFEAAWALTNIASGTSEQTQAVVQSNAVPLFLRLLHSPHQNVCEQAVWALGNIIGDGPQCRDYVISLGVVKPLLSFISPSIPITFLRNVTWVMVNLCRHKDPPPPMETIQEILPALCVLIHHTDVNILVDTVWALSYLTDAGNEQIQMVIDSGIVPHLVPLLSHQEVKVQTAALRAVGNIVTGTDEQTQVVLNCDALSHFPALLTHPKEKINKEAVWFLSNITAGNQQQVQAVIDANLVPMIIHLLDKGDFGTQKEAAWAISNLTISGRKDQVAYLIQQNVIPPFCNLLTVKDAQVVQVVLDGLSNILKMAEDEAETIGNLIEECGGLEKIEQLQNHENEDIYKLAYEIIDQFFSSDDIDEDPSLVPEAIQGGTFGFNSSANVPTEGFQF

[16] = target: T2, IBB-depleted species of Impα3 (residues 64–521 of the intact protein) (human, UniProt O00629 64-521); test: as above; details: both partners purified
T2 construct: PDB 5XZX was used only as the model of ∆Impα3 for docking; its limits may differ from 64-521; also called ΔImpα3; truncated importin species
T2 sequence (looked up): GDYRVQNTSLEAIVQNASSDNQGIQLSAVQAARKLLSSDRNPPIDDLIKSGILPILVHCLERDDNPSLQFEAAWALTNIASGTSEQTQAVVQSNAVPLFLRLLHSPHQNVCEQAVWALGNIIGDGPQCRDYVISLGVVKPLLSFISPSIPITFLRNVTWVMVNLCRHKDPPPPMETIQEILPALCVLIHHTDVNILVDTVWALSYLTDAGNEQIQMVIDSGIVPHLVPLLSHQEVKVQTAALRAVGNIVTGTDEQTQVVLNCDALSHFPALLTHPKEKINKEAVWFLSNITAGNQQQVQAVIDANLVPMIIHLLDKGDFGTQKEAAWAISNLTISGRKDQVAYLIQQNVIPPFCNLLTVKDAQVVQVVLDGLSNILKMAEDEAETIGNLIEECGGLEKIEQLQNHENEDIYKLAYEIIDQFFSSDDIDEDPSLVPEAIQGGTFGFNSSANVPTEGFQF

[17] = target: T1, Human importin α3 isoform (residues …); test: other fluorescence titration; intrinsic fluorescence, excitation at 280 or 295 nm; Impα3 or ∆Impα3 fixed at 3 μM (protomer units), peptide 0–35 μM; 50 mM Tris pH 8.0; 25 °C; details: both partners purified
[18] = target: T2, IBB-depleted species of Impα3 (residues …); test: as above; details: both partners purified
[19] = target: T2, IBB-depleted species of Impα3 (residues …); test: ITC; importin species (15 µM in protomer units) in the cell, D-NLS peptide (150–200 µM) in the syringe; Tris buffer 50 mM, pH 8.0; 25 °C; single set of binding sites; details: both partners purified
[20] = target: T1, Human importin α3 isoform (residues …); test: as above; details: both partners purified
[21] = target: T2, IBB-depleted species of Impα3 (residues …); test: as above; details: both partners purified; remark: listed apart in the source
[22] = target: T1, Human importin α3 isoform (residues …); test: as above; details: both partners purified; remark: listed apart in the source

Sequence of L-NLS-PADI (NLS2-PADI4) (Homo sapiens) (Q9UM07 498-526): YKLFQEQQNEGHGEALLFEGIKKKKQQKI
Sequence of L-NLS-NUPR1L (Homo sapiens) (A6NF83 51-74): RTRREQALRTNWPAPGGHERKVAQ
Sequence of L-NLS-NUPR1 (Homo sapiens) (O60356 54-74): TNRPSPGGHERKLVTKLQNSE
Sequence of L-NLS-NUPR1L NLS (Homo sapiens) (A6NF83 60-80): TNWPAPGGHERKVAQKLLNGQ

For Importin α3 (from UniProt O00629), the Kd [1] is listed as 3 µM, the Kd [2] is listed as 4 µM and the Kd [3] is listed as 27 µM. For the same molecule, the Kd [4] was 23 µM and the Kd [5] was 1.7 µM.

In the case of “importin α3 (Impα3) 1-521 (from UniProt O00629)”, the Kd [6] is listed as 4 µM, the Kd [7] is listed as 3 µM and the Kd [8] is listed as 1.7 µM. For the same molecule, the Kd [9] was 27 µM and the Kd [10] was 23 µM.

For “∆Importin α3 IBB-deleted (from UniProt O00629)”, the Kd [2] is given as 4 µM, the Kd [11] is given as 5.5 µM and the Kd [4] is given as 4.37 µM. The Kd [12] was 29 µM and the Kd [13] was 0.95 µM.

In the case of ∆Impα3 64-521 (from UniProt O00629), the Kd [6] is listed as 4 µM, the Kd [8] is listed as 0.95 µM and the Kd [9] is listed as 29 µM. For the same molecule, the Kd [10] was 4.37 µM and the Kd [14] was 5.5 µM.

B1: D-enantiomeric, isolated, non-canonical NLS of PADI4 (peptide)
peptide: Ac-[dK][dL][dF][dQ][dE][dQ][dQ][dN][dE]G[dH]G[dE][dA][dL][dL][dF][dE]G[dI][dK][dK][dK][dK][dQ][dQ][dK][dI]-NH2
SMILES: CC[C@@H](C)[C@@H](NC(=O)[C@@H](CCCCN)NC(=O)[C@@H](CCC(N)=O)NC(=O)[C@@H](CCC(N)=O)NC(=O)[C@@H](CCCCN)NC(=O)[C@@H](CCCCN)NC(=O)[C@@H](CCCCN)NC(=O)[C@@H](CCCCN)NC(=O)[C@H](NC(=O)CNC(=O)[C@@H](CCC(=O)O)NC(=O)[C@@H](Cc1ccccc1)NC(=O)[C@@H](CC(C)C)NC(=O)[C@@H](CC(C)C)NC(=O)[C@@H](C)NC(=O)[C@@H](CCC(=O)O)NC(=O)CNC(=O)[C@@H](Cc1c[nH]cn1)NC(=O)CNC(=O)[C@@H](CCC(=O)O)NC(=O)[C@@H](CC(N)=O)NC(=O)[C@@H](CCC(N)=O)NC(=O)[C@@H](CCC(N)=O)NC(=O)[C@@H](CCC(=O)O)NC(=O)[C@@H](CCC(N)=O)NC(=O)[C@@H](Cc1ccccc1)NC(=O)[C@@H](CC(C)C)NC(=O)[C@@H](CCCCN)NC(C)=O)[C@H](C)CC)C(N)=O
notes: second predicted (non-canonical) NLS region of PADI4 (protein arginine deiminase 4), residues 499-526 of the intact protein, made of D-amino acids; Mirror-image (all-D) peptide; also called D-NLS-PADI; D-form of NLS2-PADI4; source: synthetic peptide (Genscript, purity higher than 95%)
Work on B1 yielded a Kd [15] of 15 µM, a koff [15] of 0.6 s⁻¹ and a kon [15] of 45000 M⁻¹ s⁻¹. The Kd [16] was 6 µM, the koff [16] was 0.37 s⁻¹ and the kon [16] was 60000 M⁻¹ s⁻¹. It also gave a Kd [17] of 12 ± 5 µM and a Kd [18] of 16 ± 11 µM.

B2: D-enantiomeric, isolated NLS region of NUPR1L (residues 51–74 of the intact protein) (peptide)
peptide: Ac-[dR][dT][dR][dR][dE][dQ][dA][dL][dR][dT][dN][dW][dP][dA][dP]GG[dH][dE][dR][dK][dV][dA][dQ]-NH2
SMILES: CC(=O)N[C@H](CCCNC(=N)N)C(=O)N[C@@H](C(=O)N[C@H](CCCNC(=N)N)C(=O)N[C@H](CCCNC(=N)N)C(=O)N[C@H](CCC(=O)O)C(=O)N[C@H](CCC(N)=O)C(=O)N[C@H](C)C(=O)N[C@H](CC(C)C)C(=O)N[C@H](CCCNC(=N)N)C(=O)N[C@@H](C(=O)N[C@H](CC(N)=O)C(=O)N[C@H](Cc1c[nH]c2ccccc12)C(=O)N1CCC[C@@H]1C(=O)N[C@H](C)C(=O)N1CCC[C@@H]1C(=O)NCC(=O)NCC(=O)N[C@H](Cc1c[nH]cn1)C(=O)N[C@H](CCC(=O)O)C(=O)N[C@H](CCCNC(=N)N)C(=O)N[C@H](CCCCN)C(=O)N[C@@H](C(=O)N[C@H](C)C(=O)N[C@H](CCC(N)=O)C(N)=O)C(C)C)[C@H](C)O)[C@H](C)O
notes: NLS region of NUPR1L (paralogue of NUPR1), residues 51-74 of the intact protein, made of D-amino acids; also called D-NLS-NUPR1L; source: synthetic peptide (Genscript, purity higher than 95%)
Molecule B2 has a Kd [19] of 5 ± 1 µM, a Kd [15] of 1 µM and a koff [15] of 0.069 s⁻¹. It also gave a kon [15] of 68000 M⁻¹ s⁻¹, a dH [20] of -2.5 ± 0.2 kcal/mol and a dH [21] of -4.5 ± 0.7 kcal/mol. The Kd [16] was 0.7 µM, the koff [16] was 0.038 s⁻¹ and the kon [16] was 51200 M⁻¹ s⁻¹. For the same molecule, the Kd [22] was 2.7 ± 0.6 µM.
